Laboratory results taken from article PMC2987766.

Assays:
[1] = target: PlnDI pre-digested with a heparinase cocktail (heparinases I, II and III); assay: far-Western, overlay or dot blot; solid phase: PlnDI, undigested or pre-digested with heparinase cocktail +/- chondroitinase ABC, immobilised on nitrocellulose and incubated with VEGF165; bound VEGF165 detected with VEGF monoclonal antibodies, densitometry; heparin 0.25 ug/ml for competitive inhibition
[2] = target: Recombinant perlecan domain I (PlnDI), undigested (UniProt Q05793); assay: as above
[3] = target: Recombinant perlecan domain I (PlnDI), undigested (UniProt Q05793); assay: far-Western, overlay or dot blot; solution phase, pH 6.0: PlnDI (5 ug) pre-incubated with 20 ng VEGF165 for 1 hr at room temperature (25 mM HEPES), then blotted onto nitrocellulose; bound VEGF165 detected with anti-VEGF165 antibodies; background subtracted
[4] = target: Recombinant perlecan domain I (PlnDI), undigested (UniProt Q05793); assay: far-Western, overlay or dot blot; solution phase, pH 7.0: PlnDI (5 ug), untreated or pre-digested with heparinase cocktail and/or chondroitinase ABC, pre-incubated with 20 ng VEGF165 for 1 hr at room temperature (25 mM HEPES), then blotted onto nitrocellulose; bound VEGF165 detected with anti-VEGF165 antibodies; background subtracted

percent reduction of binding against undigested PlnDI [1]: 75%
percent of binding prevented by heparin 0.25 ug/ml [2]: 80%
percent reduction of binding against pH 8.0 [3]: 80%
percent reduction of binding against pH 8.0 [4]: 50%
Substance: Recombinant human vascular endothelial growth factor-165 (ligand)
